Experimental data as given in paper PMC11480844.

B1: H2-Kb / G2 (parent)
chain 1: GEQVEQRPPHLSVREGDSAVIICTYTDPNSYYFFWYKQEPGAGLQLLMKVFSSTEINEGQGFTVLLNKKDKQLSLNLTAAHPGDSAVYFCAVRTNQGGRALIFGTGTTVSVSP
chain 2: EAAVTQSPRSKVAVTGGKVTLSCHQTNNHDYMYWYRQDTGHGLRLIHYSYVADSTEKGDIPDGYKASRPSQENFSLILELASLSQTAVYFCASSGTDTEVFFGKGTRLTVV
chain 3: not shown
chain 4: IQKTPQIQVYSRHPPENGKPNILNCYVTQFHPPHIEIQMLKNGKKIPKVEMSDMSFSKDWSFYILAHTEFTPTETDTYACRVKHDSMAEPKTVYWDRDM
chain 5: SIINFEKL
B2: H2-Kb / B10 (parent)
chain 1: GQQVQQSPASLVLQEGENAELQCNFSSTATRLQWFYQRPGGSLVSLLSNPSGTKHTGRLTSTTVTKERRGSLHISSSQITDSGTYLCAPGGSNAKLTFGKGTKLSVKS
chain 2: DPKIIQKPKYLVAVTGSEKILICEQYLGHNAMYWYRQSAKKPLEFMFSYSYQKLMDNQTASSRFQPQSSKKNHLDLQITALKPDDSATYFCASSLRGGNNQAPLFGEGTRLSVL
chain 3: not shown
chain 4: B1 chain 4
chain 5: SIINFEKL
B3: H2-Kb / B2 (parent)
chain 1: GEQVEQRPPHLSVREGDSAVIICTYTDPNSYYFFWYKQEPGAGLQLLMKVFSSTEINEGQGFTVLLNKKDKQLSLNLTAAHPGDSAVYFCAVSQMSNYNVLYFGSGTKLTVEP
chain 2: EAAVTQSPRNKVAVTGGKVTLSCNQTNNHNNMYWYRQDTGHGLRLIHYSYGAGSTEKGDIPDGYKASRPSQENFSLILELATPSQTSVYFCASGTGGSGQLYFGEGSKLTVL
chain 3: not shown
chain 4: B1 chain 4
chain 5: SIINFEKL

Variants of: B1
Assay: % of reporter cells activated (NFAT-GFP), raw
Conditions: with G2; scale: % of reporter cells activated
Note: test concentration or dose not given here.

Ratio to parent, by site and new letter:
chain 5 S1: G 1.47 | M 1.6 | P 1.42 | C 1.31 | W 1.34 | H 1.26 | N 1.55 | V 0.976 | I 1.45 | F 1.63
chain 5 K7: A 1.58 | N 1.18 | E 1.46 | C 1.88 | M 1.34 | F 1.94 | Q 1.12 | I 1.83
chain 5 F5: Q 1.24 | E 1.34 | N 0.984 | G 1.23 | W 1.15 | L 1.46 | C 1.4 | D 1.77 | A 1.38
chain 5 L8: P 1.24 | Y 0.744 | F 1.09 | H 1.78 | S 1.15 | D 0.904 | M 2.01 | R 1.45 | Q 1.05 | C 1.06 | E 0.696
chain 5 E6: V 1.7 | H 1.36 | K 1.3 | F 1.36 | P 1.53 | S 1.01 | D 1.28 | R 1.34 | Y 1.71 | G 1.29 | W 1.31
chain 5 I3: L 1.34 | C 1.38 | S 0.936 | W 1.3 | Q 1.03 | G 1.39 | A 1.42 | D 1.26 | Y 0.904 | H 1.18
chain 5 N4: M 1.09 | L 1.54 | C 1.02 | W 2.17 | F 1.32 | V 1.26 | E 0.928 | K 1.74 | S 1.5
chain 5 I2: K 1.16 | S 1.32 | C 1.06 | N 1.11 | D 1.58 | T 1.56 | L 1.25 | Q 1.13 | E 1.41

Variants of: B2
Assay: % of reporter cells activated (NFAT-GFP), raw
Conditions: with B10; scale: % of reporter cells activated

Ratio to parent, by site and new letter:
chain 5 I2: D 1.32 | Q 1.43 | A 1.03 | M 0.729 | Y 1.22 | K 1.71 | T 1.49 | P 1 | S 1.22 | N 0.875 | C 2.08 | H 0.888 | L 0.898 | G 0.624 | V 2.51 | W 0.82 | F 1.5 | R 1.05 | E 1.27
chain 5 N4: L 1.05 | W 1.66 | G 1.28 | C 2.85 | S 1.01 | P 1.81 | K 1.32 | I 1.8 | E 1.19 | A 1.86 | M 0.932 | H 1.88 | T 1.73 | Y 2.14 | V 1.85 | Q 1.19 | F 1.51 | R 1.37 | D 2.53
chain 5 K7: D 1.09 | T 1.22 | G 0.898 | E 1.37 | L 1.85 | A 1.64 | W 1 | C 1.34 | I 2.29 | F 1.64 | S 1.39 | R 1.17 | Q 0.636 | H 2.02 | M 2.2 | N 1.54 | Y 0.995 | P 1.37 | V 1.37
chain 5 F5: S 1.46 | Q 1.64 | E 2.36 | Y 1.41 | M 1.49 | A 1.31 | K 1.49 | W 1.03 | G 1.63 | L 2.41 | P 1.86 | V 1.02 | H 1.27 | T 0.847 | D 4.25 | N 2.03 | I 1.83 | C 1.1 | R 1.1
chain 5 I3: E 1.13 | A 0.702 | T 1.44 | V 1.12 | M 1.2 | H 1.53 | Q 0.61 | G 1.61 | R 0.903 | P 0.949 | Y 1.97 | K 1.47 | C 0.746 | F 0.897 | L 1.93 | D 0.864 | W 0.831 | N 0.966 | S 1.22
chain 5 E6: V 1.44 | L 1.28 | N 0.915 | S 1.65 | Y 1.57 | T 1.75 | D 1.26 | Q 1.31 | C 1.72 | K 1.31 | P 0.983 | W 1.09 | G 1.53 | A 0.973 | R 1.9 | M 1.2 | F 1.74 | I 0.763 | H 0.924
chain 5 S1: G 0.831 | W 1.07 | T 1.1 | D 0.924 | A 0.498 | K 1.53 | L 1.32 | P 0.849 | F 0.678 | M 1.64 | Q 0.831 | R 0.627 | C 1.07 | H 1.08 | V 1.15 | E 0.864 | I 1.1 | Y 0.966 | N 1.71
chain 5 L8: I 0.769 | Q 1.11 | A 1.07 | W 0.814 | F 1.03 | R 1.34 | C 1.27 | N 0.915 | P 1.39 | E 1.53 | H 0.966 | V 0.51 | K 1.12 | Y 0.356 | S 0.903 | G 0.683 | M 0.831 | T 0.915 | D 0.849

Variants of: B3
Assay: % of reporter cells activated (NFAT-GFP), raw
Conditions: with B2; scale: % of reporter cells activated

Ratio to parent, by site and new letter:
chain 5 E6: D 0.6 | R 0.573 | Q 0.724 | W 0.6 | V 0.422 | M 0.946 | A 0.557 | N 0.535 | G 1.06 | S 0.751 | H 0.497 | P 0.741 | Y 0.697 | I 0.67 | K 1.8 | F 0.584 | T 0.746 | C 0.811 | L 0.53
chain 5 K7: M 2.53 | F 4.64 | C 2.46 | I 1.95 | R 1.97 | D 3.15 | T 1.99 | Y 2.46 | P 3.7 | N 1.84 | V 12.4 | E 1.49 | Q 1.96 | S 3.71 | G 7.31 | L 2.05 | A 4.46 | H 4.08 | W 7.51
chain 5 I2: S 0.714 | R 1.36 | H 0.93 | V 1.91 | G 0.876 | M 2.66 | Y 0.87 | P 0.892 | A 1.58 | K 1.18 | Q 0.573 | N 0.589 | T 1.68 | W 0.768 | C 1.2 | E 0.654 | L 4.69 | D 1 | F 2.06
chain 5 F5: P 0.703 | A 1.27 | C 3.54 | W 0.519 | L 3.33 | H 12.1 | K 0.741 | R 0.476 | Q 1.75 | T 0.632 | G 0.438 | M 1.38 | S 0.73 | N 1.95 | D 1.06 | V 0.346 | E 0.573 | Y 7.49 | I 1.82
chain 5 I3: P 0.692 | H 0.676 | R 0.335 | M 0.659 | A 0.741 | K 0.427 | E 0.432 | L 0.724 | Q 0.524 | F 0.324 | Y 0.476 | V 0.449 | W 0.578 | T 0.4 | C 0.795 | G 0.568 | D 0.481 | S 0.4 | N 0.389
chain 5 L8: F 8.42 | I 0.708 | H 2.32 | A 8.62 | D 0.914 | C 2.06 | G 0.849 | K 1.17 | E 0.551 | M 3.42
